Where no end group is shown, it is not given here.
Target: T1, hCCR8 (Homo sapiens, UniProt P51685)
T1 construct: expressed in transfected cells
Test: Flow cytometry binding of VHH-Fc fusion antibodies to hCCR8 on stably transfected HEK293 cells
Settings: Table 12; for EC50: VHH-2 CDR alanine mutants as human Fc fusions, HEK293 hCCR8; for % Bmax: normalized to wild type VHH-2-Fc
Procedure: VHH-Fc fusion antibodies were evaluated for their ability to bind to hCCR8 on stably transfected HEK293 cells by means of flow cytometry. Cells were incubated with different concentrations of the bivalent VHH-Fc fusions for 60 minutes at 4° C., followed by two washes with FACS buffer, followed by 30 minutes incubation at 4° C. with the Zenon R-Phycoerythrin Anti-human IgG (ThermoFisher Scientific, #Z-25455), and two additional washing steps. Data were plotted and fit using GraphPad Prism software. EC50 and Bmax values individual antibodies were calculated from the resulting dose-response curves. Bivalent VHH-Fc fusions (Seq ID NOs: 31, 33, and 87-103) of 19 different VHH domains (SEQ ID NOs: 27, 28, and 70-86) were tested for cell binding and results are shown in Table 7. […]
VHH-Fc fusion DNA constructs were then generated comprising encoding humanized VHH sequences (SEQ ID NOs: 106-111) fused in frame to the human IgG1 (SEQ ID NO: 34) directly to the short hinge sequence in the pFuse expression vector, and were expressed, purified and analyzed for binding to HEK293 cells expressing human CCR8 as in Example 5. Binding curves for VHH-Fc antibodies comprised of parental VHH-1 and the humanized VHH derivatives VHH-1.2-Fc and VHH-1.3-Fc are shown in FIG. 9A. Binding curves for VHH-Fc antibodies comprised of parental VHH-2 and the humanized VHH derivatives VHH-2-Fc, VHH-2.2-Fc and VHH-2.3-Fc, are shown in FIG. 9B. Cell binding EC50 values, normalized Bmax (relative to respective parental clone) data and humanizing mutations are shown in Table 10 below.
Approaches such as in vitro affinity maturation and rational mutagenesis can be performed to regain binding affinity and/or stability lost through humanization. In vitro affinity maturation generally involves building and amino acid substitution library where amino acid positions are varied across the CDRs and/or framework at a defined set of positions using sets of amino acids chosen to introduce new chemical diversity. The paratope residues within the CDR regions are of course key to antigen binding and care must be taken not to disrupt important structures while attempting to evolve improve antibody behavior. One approach to identify positions that are important to the maintenance of binding properties is to perform paratope mapping using single scanning alanine substitutions across antibody CDR regions. In this approach, residues that are critical to the maintenance of antibody binding to the antigen can be identified and at the same time permissive sites can be identified where it may be possible to make substitutions of other amino acids desirable for subsequent affinity maturation library construction. Site directed mutagenesis was used to make single alanine substitutions at each residue in the CDRs of VHH-1 (SEQ ID NO: 27) and VHH-2 (SEQ ID NO: 28). Changes in VHH-1 CDR amino acids to alanine are indicated in Table 11 (SEQ ID NOs: 112-137) and for VHH-2 CDRs (SEQ ID NO: 138-162) in Table 12. Mutation positions and residue changes to alanine with respect to the in the parental VHH sequences are referenced by their IMGT position. VHH domains containing the indicated modified CDR-1, CDR-2 or CDR-3 domains were used to construct Fc fusions by direct grafting to the short hinge of the human Fc domain (SEQ ID NO: 34). VHH-Fc constructs were expressed, purified and analyzed for binding to HEK293 cells expressing hCCR8 and the results are reported in Table 11 and Table 12. EC50 values are reported for each Fc fusion antibody containing a modified CDR, along with its respective Bmax value normalized to the to the matched wild type VHH-1-Fc or VHH-2-Fc fusion antibody.

T1 sequence (P51685 whole entry): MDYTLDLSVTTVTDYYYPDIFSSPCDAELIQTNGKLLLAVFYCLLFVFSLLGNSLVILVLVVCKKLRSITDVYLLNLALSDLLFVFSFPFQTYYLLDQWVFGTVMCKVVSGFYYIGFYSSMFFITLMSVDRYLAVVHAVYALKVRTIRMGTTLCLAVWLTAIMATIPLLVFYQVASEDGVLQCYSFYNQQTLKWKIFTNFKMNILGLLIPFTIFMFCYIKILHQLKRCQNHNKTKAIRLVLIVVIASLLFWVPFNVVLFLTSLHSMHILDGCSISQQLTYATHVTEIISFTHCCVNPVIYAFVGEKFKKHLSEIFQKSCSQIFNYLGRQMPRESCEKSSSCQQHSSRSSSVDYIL

Row | EC50 | % Bmax | Substance
1 | 1.61 nM | 68% | VHH-2 S28A: VHH-2 alanine mutant, CDR1 GATSTINR, fused to human IgG1 Fc (also: CDR1 of VHH-2 in VHH fused to human IgG1 Fc)
2 | 1.62 nM | 66% | VHH-2 S30A: VHH-2 alanine mutant, CDR1 GSTATINR, fused to human IgG1 Fc (also: CDR1 of VHH-2 in VHH fused to human IgG1 Fc)
3 | 1.03 nM | 69% | VHH-2 S57A: VHH-2 alanine mutant, CDR2 TASRTSP, fused to human IgG1 Fc (also: CDR2 of VHH-2 in VHH fused to human IgG1 Fc)
4 | 1.02 nM | 65% | VHH-2 S58A: VHH-2 alanine mutant, CDR2 TSARTSP, fused to human IgG1 Fc (also: CDR2 of VHH-2 in VHH fused to human IgG1 Fc)
5 | 1.08 nM | 70% | VHH-2 S63A: VHH-2 alanine mutant, CDR2 TSSRTAP, fused to human IgG1 Fc (also: CDR2 of VHH-2 in VHH fused to human IgG1 Fc)
6 | 0.9 nM | 48% | VHH-2 S113A: VHH-2 alanine mutant, CDR3 QARMAMGSAQVVY, fused to human IgG1 Fc (also: CDR3 of VHH-2 in VHH fused to human IgG1 Fc)
7 | 1.43 nM | 65% | VHH-2 T29A: VHH-2 alanine mutant, CDR1 GSASTINR, fused to human IgG1 Fc (also: CDR1 of VHH-2 in VHH fused to human IgG1 Fc)
8 | 0.87 nM | 65% | VHH-2 T35A: VHH-2 alanine mutant, CDR1 GSTSAINR, fused to human IgG1 Fc (also: CDR1 of VHH-2 in VHH fused to human IgG1 Fc)
9 | 1.34 nM | 11% | VHH-2 V115A: VHH-2 alanine mutant, CDR3 QARMAMGSSQAVY, fused to human IgG1 Fc (also: CDR3 of VHH-2 in VHH fused to human IgG1 Fc)
10 | 0.83 nM | 72% | VHH-2 V116A: VHH-2 alanine mutant, CDR3 QARMAMGSSQVAY, fused to human IgG1 Fc (also: CDR3 of VHH-2 in VHH fused to human IgG1 Fc)
11 | 0.86 nM | 76% | VHH-2 Y117A: VHH-2 alanine mutant, CDR3 QARMAMGSSQVVA, fused to human IgG1 Fc (also: CDR3 of VHH-2 in VHH fused to human IgG1 Fc)

Row | Substance | EC50 | % Bmax
12 | VHH-2 T59A: VHH-2 alanine mutant, CDR2 TSSRASP, fused to human IgG1 Fc | 1.48 nM | 74%
